In the nanobody polyreactivity screen of Harvey et al. (2022):

test: yeast display, Sf9 membrane polyspecificity reagent, FACS + sequencing; frameworks hold sequencing errors
Method in brief: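 Galactose-induced (36–48 hours) yeast carrying a synthetic nanobody display library were exposed to 10% biotinylated, detergent-solubilized Sf9 membrane reagent at 4 °C for 1 hour. FACS followed streptavidin microbead enrichment, using low and high (top ~1%) gates for expression (anti-HA) and reagent binding (streptavidin). Colony PCR, MiSeq 2 × 250 sequencing and CDR-length filtering followed. Labels for polyreactivity reflect the gate of origin.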

| Sequence | polyreactivity (PSR sort gate) |
| --- | --- |
| QVQLVESGGGLVQAGGSLRLSCAASGLTFGGYAMGWYRPAPGKERELVAAISWSGGRTYYADSVKGRFTISRDNAKNTVYLQMNSLKPEDTAVYYCAARKLVVNLREDYWGQGTQVTVSS | high polyreactivity |
| QVQLVESGGGLVQAGGSLRLSCAASGLTFGGYAMGWYRQAPGKERELVAAISRSGGSTYYADSVKGRFTISRDNAKNTVYLQMNSLKPEDTAVYYCAAVLSVRVYGYDYWGQGTQVTVSS | low polyreactivity |
| QVQLVESGGGLVQAGGSLRLSCAASGLTFGNYAMGWYRQAPGKERELVAAISKRGGTTYYADSVKARFTISRDNAKNTVYLQMNSLKPEDTAVYYCSARDYSHPTDDNYWGQGTQVTVSS | high polyreactivity |
| QVQLVESGGGLVQAGGSLRLSCAASGLTFGRNAMGWYRQAPCKERDLVAAITFNGGSTYYADSVKGRFTISRDNEKNTVYIQMNSLKPEDTAVYYCAARLWRRTRFDYWGQGTQVTVSS | high polyreactivity |
| QVQLVESGGGLVQAGGSLRLSCAASGLTFGRYAMGWYRQAPGKERELVAAITARVGRTYYADSVKGRFTISRDNAKNTVYLQMNSLKPEDTAVYYCAAGPSYYWYSHEKYDYWGQGTQVTVSS | high polyreactivity |
| QVQLVESGGGLVQAGGSLRLSCAASGLTFGSYAMGWYRQAPGKERELVAAITWSGGSTYYADSVKGRFTISRDNAKNTVYLQMNSLKPEDTAVYYCAVYSTEYKLLWGGIAYDYWGQGTQVTVSS | low polyreactivity |
| QVQLVESGGGLVQAGGSLRLSCAASGLTFGTNAMGWYRQAPGKERELVAAISTSSGSTYYADSVKGRFTISRDNAKNTVYLQMNSLKPEDTAGYYCAAVTVTKLSYYRYYYWGQGTQVTVSS | low polyreactivity |
| QVQLVESGGGLVQAGGSLRLSCAASGLTFGYYAMGWYRQAPGKERELVAAISQSGGSTYYADSVKGRFTISRDNAKNTVYLQMNSLKPEDTAVYYCATRRYGYRYDQPYSNDYWGQGTQVTVSS | low polyreactivity |
| QVQLVESGGGLVQAGGSLRLSCAASGLTFGYYAMGWYRQAPGKERELVAAISRGSSTYYADSVKGRFTISRDNAKNTVYLQMNSLKPEDTAVYYCNALFSYGYWRVRYIVTQYDYWGQGTQVTVSS | high polyreactivity |
| QVQLVESGGGLVQAGGSLRLSCAASGLTFHPYAMGWYRQAPGKERELVAAISSRGTSTYYADSVKGRFTISRDNAKNTVYLQMNSLKPEDTAVYYCAARHGPRAESMYYWGQCTQVTVSS | high polyreactivity |
| QVQLVESGGGLVQAGGSLRLSCAASGLTFHRYAMGWYRPAPGKERELVAAINYSGGRTYYADSVKGRFTISRDNAKYTVYLQMNSLKPEDTAVYYCAARFSRVYPRYDYWGQGTQVTVSS | high polyreactivity |
| QVQLVESGGGLVQAGGSLRLSCAASGLTFHRYAMGWYRQAPGKERELVAAINYSGGRTYYADSVKGRFTISRDNAKNTVYLQMNSLKPEDTAVYYCNKCYVYHPGSLEYGYWGQGTQVTVSS | high polyreactivity |
| QVQLVESGGGLVQAGGSLRLSCAASGLTFHRYAMGWYRQAPGKERELVAAISRSGVTTRYADSVKGRFTISRDNAKNTVYLQMNSLKPEDTAVYYCAAVYRVRKITYDYWGQGTQVTVSS | high polyreactivity |
| QVQLVESGGGLVQAGGSLRLSCAASGLTFHRYAMGWYRQAPGKERELVADISSGDSTNYADSVKGRFTISRDNAKNTVYLQMNSLKPEDTAVYYCNTDGYIYRYRFDYWGQGTQVTVSS | low polyreactivity |
| QVQLVESGGGLVQAGGSLRLSCAASGLTFIGNAMGWYRQAPGKERELVAAITWSGTSTYYADSVKGRFTISRDNAKNTVYLQMNSLKPEDTAVYYCAAVLRRLGVSYYYWGQGTQVTVSS | high polyreactivity |
| QVQLVESGGGLVQAGGSLRLSCAASGLTFIGYVMGWYRQAPGKERELVAAISGSGGSTYYADSVKGRFTISRDNAKNTVYLQMNSLKPEDTAVYYCAARSRVLTRYDYWGQGTQVTVSS | high polyreactivity |
